Results published in PMC9671860.

What was measured:
[1] = target: Enterococcus faecalis FabO 3-ketoacyl-ACP synthase I, hexahistidine-tagged (Enterococcus faecalis (strain FA2-2)); experiment: SEC
[2] = target: Enterococcus faecalis FabN dehydratase/isomerase, hexahistidine-tagged (Enterococcus faecalis (strain FA2-2)); experiment: SEC

| Substance | stoichiometry N [1] | stoichiometry N [2] |
| --- | --- | --- |
| Enterococcus faecalis FabO 3-ketoacyl-ACP synthase I, hexahistidine-tagged (enzyme) | 2 |  |
| Enterococcus faecalis FabN dehydratase/isomerase, hexahistidine-tagged (enzyme) |  | 6 |
